The target in assay [1] is PLCG1 C-terminal SH2 domain (human). Description: SPR; Biacore 3000; 6X His SH2 proteins held on a Ni-NTA chip, dye-free peptides in solution, equilibrium.
For assay [2], the target named is PIK3R3 C-terminal SH2 domain (human). Described as above.
Assay [3] addresses PIK3R1 N-terminal SH2 domain (human). Described as above.
A further assay has as its target YES1 SH2 domain (human) (UniProt P07947). Description: peptide or protein array; SH2/PTB proteins spotted on aldehyde slides, rhodamine peptide titrated in buffer B (20 mM HEPES, 100 mM KCl, 0.1% Tween-20, 5 mM DTT, pH 7.8), 1 h at room temperature; replicate assays.
In assay [4] the target is SH3BP2 SH2 domain (human) (UniProt P78314). The description is as above.
Another assay has as its target BLK SH2 domain (human) (UniProt P51451). The assay is described as above.
The target of assay [5] is SYK tandem SH2 domains (human). Described as above.
Assay [6] deals with MET pY1313 phosphopeptide, rhodamine-labelled. In words: fluorescence polarisation; saturation binding in solution: rhodamine peptide fixed at 10 nM, protein titrated 0.002-10 uM, 20 min at room temperature; assay buffer 20 mM HEPES, 100 mM KCl, 0.1% Tween-20, 5 mM DTT, pH 7.8; apparent KD.
Assay [7] concerns the target ErbB2 pY685 phosphopeptide, rhodamine-labelled (human). The description is as above.
The target in assay [8] is ErbB1 pY801 phosphopeptide, rhodamine-labelled (human). Described as above.
Assay [9] has as its target ErbB1 Y900 non-phosphorylated peptide, rhodamine-labelled (human). The description is as above.
Assay [10] deals with SRC (Homo sapiens) (UniProt P12931). To be noted: cited from earlier work.
Assay [11] addresses YES1 (Homo sapiens) (UniProt P07947). Particulars: cited from earlier work.
Assay [12] deals with SHC1-PTB (Homo sapiens) (UniProt P29353). Particulars: cited from earlier work.
The target in assay [13] is ABL2 (Homo sapiens) (UniProt P42684). To be noted: cited from earlier work.
The target in the next assay is SH2B3 (Homo sapiens) (UniProt Q9UQQ2). Particulars: cited from earlier work.
In a further assay the target is SLA2 (Homo sapiens) (UniProt Q9H6Q3). To be noted: cited from earlier work.
The target of another assay is VAV2 (Homo sapiens) (UniProt P52735). To be noted: cited from earlier work.
Assay [14] concerns the target ABL2 (Homo sapiens) (UniProt P42684). Particulars: cited from earlier work. The source holds these as a separate data set.
The target in assay [15] is SHC1-PTB (Homo sapiens) (UniProt P29353). To be noted: cited from earlier work. This is another data set of the same source.
For assay [16], the target named is SYK-NC (Homo sapiens) (UniProt P43405). To be noted: cited from earlier work.
The target in assay [17] is RASA1-N (Homo sapiens) (UniProt P20936). Particulars: cited from earlier work.
In a further assay the target is PIK3R3-NC (Homo sapiens) (UniProt Q92569). Particulars: cited from earlier work.
For another assay, the target named is PLCG1-NC (Homo sapiens) (UniProt P19174). Particulars: cited from earlier work.
The target of a further assay is PIK3R2-NC (Homo sapiens) (UniProt O00459). To be noted: cited from earlier work.
Assay [18] has as its target ABL2 (Homo sapiens) (UniProt P42684). To be noted: cited from earlier work. This is another data set of the same source.
For assay [19], the target named is RASA1-N (Homo sapiens) (UniProt P20936). Particulars: cited from earlier work. This is another data set of the same source.
Assay [20] has as its target CRKL (Homo sapiens) (UniProt P46109). Particulars: cited from earlier work.
For assay [21], the target named is CRK (Homo sapiens) (UniProt P46108). Particulars: cited from earlier work.
For assay [22], the target named is SYK-NC (Homo sapiens) (UniProt P43405). To be noted: cited from earlier work. This is another data set of the same source.
The target in the next assay is PLCG2-NC (Homo sapiens) (UniProt P16885). To be noted: cited from earlier work.
Assay [23] addresses YES1 (Homo sapiens) (UniProt P07947). Particulars: cited from earlier work. This is another data set of the same source.
In another assay the target is BMX (Homo sapiens) (UniProt P51813). Particulars: cited from earlier work.
The next assay has as its target TNS1 (Homo sapiens) (UniProt Q9HBL0). To be noted: cited from earlier work.
Assay [24] has as its target SYK-NC (Homo sapiens) (UniProt P43405). Particulars: cited from earlier work. This is another data set of the same source.
The target in assay [25] is CRK (Homo sapiens) (UniProt P46108). Particulars: cited from earlier work. The source holds these as a separate data set.
For assay [26], the target named is ABL2 (Homo sapiens) (UniProt P42684). To be noted: cited from earlier work. The source holds these as a separate data set.
Assay [27] concerns the target CRKL (Homo sapiens) (UniProt P46109). Particulars: cited from earlier work. The source holds these as a separate data set.
Assay [28] addresses ABL2 (Homo sapiens) (UniProt P42684). To be noted: cited from earlier work. The source holds these as a separate data set.
In assay [29] the target is RASA1-N (Homo sapiens) (UniProt P20936). To be noted: cited from earlier work. The source holds these as a separate data set.
The next assay has as its target SHB (Homo sapiens) (UniProt Q15464). Particulars: cited from earlier work.
Assay [30] addresses CRKL (Homo sapiens) (UniProt P46109). To be noted: cited from earlier work. This is another data set of the same source.
In assay [31] the target is ABL2 (Homo sapiens) (UniProt P42684). Particulars: cited from earlier work. This is another data set of the same source.
Assay [32] deals with SRC (Homo sapiens) (UniProt P12931). To be noted: cited from earlier work. This is another data set of the same source.
Assay [33] concerns the target SYK-N (Homo sapiens) (UniProt P43405). To be noted: cited from earlier work.
Assay [34] has the same target. To be noted: cited from earlier work. The source holds these as a separate data set.

pKd: −log10 of the molar value. Several values for one entry are separate records, joined by “and”; a condition that tells them apart may be missing. Identical values can stand only once. Like-named read-outs stand apart in the source and are kept apart here.

Chain of CRKL (Homo sapiens) (P46109 9-107): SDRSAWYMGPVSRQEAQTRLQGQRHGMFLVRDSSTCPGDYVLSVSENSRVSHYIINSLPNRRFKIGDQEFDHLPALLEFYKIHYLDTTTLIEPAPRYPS
Chain of ABL2 (Homo sapiens) (P42684 168-268): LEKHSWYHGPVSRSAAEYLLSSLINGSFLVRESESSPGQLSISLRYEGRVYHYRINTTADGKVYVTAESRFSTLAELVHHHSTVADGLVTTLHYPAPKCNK
Chain of RASA1-N (Homo sapiens) (P20936 176-446): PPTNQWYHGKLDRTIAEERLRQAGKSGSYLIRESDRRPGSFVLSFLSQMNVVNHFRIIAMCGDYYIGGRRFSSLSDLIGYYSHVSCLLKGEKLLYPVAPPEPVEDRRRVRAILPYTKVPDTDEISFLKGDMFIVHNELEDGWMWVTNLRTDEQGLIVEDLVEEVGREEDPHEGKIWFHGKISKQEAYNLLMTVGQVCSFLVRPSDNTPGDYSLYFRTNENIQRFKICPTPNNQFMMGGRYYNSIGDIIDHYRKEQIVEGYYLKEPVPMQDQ
Chain of YES1 SH2 domain (human) (P07947 158-255): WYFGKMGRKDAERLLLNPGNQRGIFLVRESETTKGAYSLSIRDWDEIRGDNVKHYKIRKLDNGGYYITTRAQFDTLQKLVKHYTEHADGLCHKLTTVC
Chain of BLK SH2 domain (human) (P51451 124-220): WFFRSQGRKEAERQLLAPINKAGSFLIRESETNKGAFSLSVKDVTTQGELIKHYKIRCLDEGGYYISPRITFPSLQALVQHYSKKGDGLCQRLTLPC
Chain of SH3BP2 SH2 domain (human) (P78314 457-555): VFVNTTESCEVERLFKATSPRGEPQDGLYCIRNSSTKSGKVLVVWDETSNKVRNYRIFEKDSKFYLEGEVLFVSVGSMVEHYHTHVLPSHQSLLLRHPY
Chain of CRK (Homo sapiens) (P46108 8-123): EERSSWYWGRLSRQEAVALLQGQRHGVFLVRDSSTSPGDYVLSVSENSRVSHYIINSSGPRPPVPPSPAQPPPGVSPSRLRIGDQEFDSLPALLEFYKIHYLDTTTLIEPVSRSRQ
Chain of SHC1-PTB (Homo sapiens) (P29353 483-583): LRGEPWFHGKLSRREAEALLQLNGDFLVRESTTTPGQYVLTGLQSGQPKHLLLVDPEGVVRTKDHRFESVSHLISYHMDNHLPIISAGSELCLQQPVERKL
Chain of YES1 (Homo sapiens) (P07947 153-260): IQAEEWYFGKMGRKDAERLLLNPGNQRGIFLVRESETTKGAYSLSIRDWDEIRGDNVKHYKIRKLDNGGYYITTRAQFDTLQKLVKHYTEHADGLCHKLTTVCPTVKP
Chain of PLCG2-NC (Homo sapiens) (P16885 527-740): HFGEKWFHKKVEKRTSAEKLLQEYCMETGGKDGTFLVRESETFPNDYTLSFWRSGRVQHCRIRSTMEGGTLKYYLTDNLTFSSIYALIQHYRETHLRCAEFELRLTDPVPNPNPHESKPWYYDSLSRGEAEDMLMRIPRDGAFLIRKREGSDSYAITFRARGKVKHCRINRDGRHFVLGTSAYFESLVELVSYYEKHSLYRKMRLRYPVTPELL
Chain of SH2B3 (Homo sapiens) (Q9UQQ2 359-467): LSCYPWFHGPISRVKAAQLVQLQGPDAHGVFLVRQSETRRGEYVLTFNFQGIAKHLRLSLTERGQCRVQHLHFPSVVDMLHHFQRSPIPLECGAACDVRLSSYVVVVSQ
Chain of SHB (Homo sapiens) (Q15464 405-509): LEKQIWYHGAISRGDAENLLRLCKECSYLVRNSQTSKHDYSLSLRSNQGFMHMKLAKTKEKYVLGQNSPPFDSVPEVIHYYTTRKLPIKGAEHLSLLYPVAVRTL
Chain of PLCG1-NC (Homo sapiens) (P19174 545-761): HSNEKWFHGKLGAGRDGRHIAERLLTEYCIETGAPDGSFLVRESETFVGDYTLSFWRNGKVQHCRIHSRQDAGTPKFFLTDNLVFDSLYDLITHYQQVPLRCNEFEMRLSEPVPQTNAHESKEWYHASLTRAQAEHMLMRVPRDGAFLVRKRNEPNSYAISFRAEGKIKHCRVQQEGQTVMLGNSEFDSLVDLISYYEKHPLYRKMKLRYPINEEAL
Chain of VAV2 (Homo sapiens) (P52735 668-772): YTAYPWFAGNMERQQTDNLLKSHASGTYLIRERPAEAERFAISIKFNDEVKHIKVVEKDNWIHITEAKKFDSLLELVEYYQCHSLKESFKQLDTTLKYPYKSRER
Chain of TNS1 (Homo sapiens) (Q9HBL0 1562-1681): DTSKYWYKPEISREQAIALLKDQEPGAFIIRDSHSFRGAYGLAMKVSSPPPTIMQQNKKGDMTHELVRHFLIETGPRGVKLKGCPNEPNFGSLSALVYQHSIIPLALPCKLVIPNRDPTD
Chain of SLA2 (Homo sapiens) (Q9H6Q3 89-196): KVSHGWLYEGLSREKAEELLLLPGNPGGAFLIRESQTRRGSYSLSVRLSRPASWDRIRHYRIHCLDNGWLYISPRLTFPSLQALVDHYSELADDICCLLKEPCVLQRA
Chain of BMX (Homo sapiens) (P51813 291-397): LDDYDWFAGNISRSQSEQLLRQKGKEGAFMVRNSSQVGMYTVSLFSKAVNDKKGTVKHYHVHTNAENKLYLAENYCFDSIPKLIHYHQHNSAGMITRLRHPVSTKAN
Chain of PIK3R2-NC (Homo sapiens) (O00459 325-721): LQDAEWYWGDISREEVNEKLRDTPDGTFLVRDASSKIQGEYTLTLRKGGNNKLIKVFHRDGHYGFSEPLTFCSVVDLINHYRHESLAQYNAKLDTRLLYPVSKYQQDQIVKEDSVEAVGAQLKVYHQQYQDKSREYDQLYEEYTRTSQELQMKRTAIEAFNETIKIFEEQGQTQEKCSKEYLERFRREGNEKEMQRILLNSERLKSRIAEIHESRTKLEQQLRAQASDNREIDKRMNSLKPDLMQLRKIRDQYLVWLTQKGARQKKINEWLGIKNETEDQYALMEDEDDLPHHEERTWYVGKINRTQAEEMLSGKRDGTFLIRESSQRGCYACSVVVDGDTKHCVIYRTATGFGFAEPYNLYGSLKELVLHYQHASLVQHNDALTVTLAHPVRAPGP

For the substance ErbB1 pY900 phosphopeptide, dye-free, the pKd was 4.96 in assay [1] and 5.83 in assay [2].
ErbB1 pY978 phosphopeptide, dye-free: in assay [1], the pKd is 6.37.
As to ErbB2 pY685 phosphopeptide, dye-free, the pKd in assay [3] is 4.87; in assay [2], 5.82.
In assay [1], ErbB4 pY833 phosphopeptide, dye-free had a pKd of 5.46.
Regarding “ErbB4 pY1301 phosphopeptide (18-mer), rhodamine-labelled, for protein microarrays”, the pKd with YES1 SH2 domain (human) is 5.86 and 5.31; in assay [4] it was 5.93 and 5.79; in the assay with BLK SH2 domain (human), 5.93 and 5.79; in assay [5] it was 6.10 and 5.93.
As for “PIK3R1 N-terminal SH2 domain (domain or fragment)”, the pKd in [6] is 6.59; in assay [7] it was 5.60; in assay [8], 5.16.
Regarding “PIK3R2 tandem SH2 domains (from UniProt O00459 1-728) (domain or fragment)”, the pKd in [9] was 5.16.
For “SHC2 PTB domain (from UniProt P98077 1-582) (domain or fragment)”, in [9], the pKd was 5.27.
…pYKGLWIPEd: the apparent Kd (screen) with SRC (Homo sapiens) [10] is 579 nM; with YES1 (Homo sapiens) [11] it was 540 nM.
As for …pYLGLDVPV, the apparent Kd (screen) is 277 nM in the assay with SHC1-PTB (Homo sapiens) [12] and 210 nM with ABL2 (Homo sapiens) [13].
For the substance …pYLSEFSLK, the apparent Kd (screen) with SH2B3 (Homo sapiens) is 2000 nM; in the assay with SLA2 (Homo sapiens), 2000 nM; with VAV2 (Homo sapiens), 2000 nM; with ABL2 (Homo sapiens) [14], 221 nM; with SHC1-PTB (Homo sapiens) [15], 24 nM; in the assay with SYK-NC (Homo sapiens) [16], 1670 nM. For the same substance, the apparent Kd (screen) in the assay with RASA1-N (Homo sapiens) [17] is 709 nM; with PIK3R3-NC (Homo sapiens), 2000 nM; in the assay with PLCG1-NC (Homo sapiens), 2000 nM; in the assay with PIK3R2-NC (Homo sapiens), 2000 nM.
Consider …pYMTPMRDKd, for which the apparent Kd (screen) with ABL2 (Homo sapiens) [18] was 18 nM; with RASA1-N (Homo sapiens) [19] it was 27 nM; with CRKL (Homo sapiens) [20], 65 nM; with CRK (Homo sapiens) [21] it was 29 nM; with SYK-NC (Homo sapiens) [22], 330 nM.
Take …pYNADGGKMd: the apparent Kd (screen) with PLCG2-NC (Homo sapiens) was 1140 nM.
…pYQDPHSTAd: the apparent Kd (screen) was 378 nM with YES1 (Homo sapiens) [23]; 1070 nM in the assay with BMX (Homo sapiens); 1280 nM with TNS1 (Homo sapiens); 981 nM with SYK-NC (Homo sapiens) [24]; 1230 nM with CRK (Homo sapiens) [25]; 133 nM with ABL2 (Homo sapiens) [26]. The apparent Kd (screen) was 2000 nM with CRKL (Homo sapiens) [27], 74 nM with ABL2 (Homo sapiens) [28], 1320 nM with RASA1-N (Homo sapiens) [29] and 991 nM with SHB (Homo sapiens).
As to …pYRAPTSTId, the figures for the apparent Kd (screen) in the assay with CRKL (Homo sapiens) [30] and with ABL2 (Homo sapiens) [31] were 1240 nM and 1230 nM, respectively.
…pYSADPTVFd: the apparent Kd (screen) with SRC (Homo sapiens) [32] is 504 nM.
For the substance …pYVNEPLYLd, in the assay with SYK-N (Homo sapiens) [33], the apparent Kd (screen) is 6 nM.
For …pYVREHKDNd, in the assay with SYK-N (Homo sapiens) [34], the apparent Kd (screen) was 559 nM.

Values taken from publication PMC3433420.
